Bridge positions count the residues as written; N and C are the ends. Square brackets hold non-standard residues; d marks the D form. Ends that are not written are not given here. 1Nal = N[C@@H](Cc1cccc2ccccc12)C(=O)O; 2Nal = N[C@@H](Cc1ccc2ccccc2c1)C(=O)O; d2Nal = N[C@H](Cc1ccc2ccccc2c1)C(=O)O; Bta = N[C@@H](Cc1csc2ccccc12)C(=O)O; Ac5c = NC1(C(=O)O)CCCC1; Apc = not defined here; βAla = NCCC(=O)O
B1: Ac-c(Cys-Glu-His-D-2-Nal-Arg-2-Nal-Ala-Cys)-Pro-Pro-Lys-Asp-β-Ala-Tyr-Gly-Arg-Lys-Lys-Arg-Arg-Gln-Arg-Arg-Arg-NH2 (peptide)
peptide: CEHXRXACPPKDXYGRKKRRQRRR
modifications: N-terminal Ac; D-2-Nal at 4; 2-Nal at 6; β-Ala at 13; disulfide Cys1-Cys8; C-terminal NH2
B2: Ac-c(Cys-Glu-His-D-2-Nal-Arg-1-Nal-Ala-Cys)-Pro-Pro-Lys-Asp-β-[…]NH2 (peptide)
peptide: Ac-CEH[d2Nal]R[1Nal]ACPPKD[βAla]YGRRKRRQRRR-NH2
modifications: disulfide 1-8
SMILES: CC(=O)N[C@H]1CSSC[C@@H](C(=O)N2CCC[C@H]2C(=O)N2CCC[C@H]2C(=O)N[C@@H](CCCCN)C(=O)N[C@@H](CC(=O)O)C(=O)NCCC(=O)N[C@@H](Cc2ccc(O)cc2)C(=O)NCC(=O)N[C@@H](CCCNC(=N)N)C(=O)N[C@@H](CCCNC(=N)N)C(=O)N[C@@H](CCCCN)C(=O)N[C@@H](CCCNC(=N)N)C(=O)N[C@@H](CCCNC(=N)N)C(=O)N[C@@H](CCC(N)=O)C(=O)N[C@@H](CCCNC(=N)N)C(=O)N[C@@H](CCCNC(=N)N)C(=O)N[C@@H](CCCNC(=N)N)C(N)=O)NC(=O)[C@H](C)NC(=O)[C@H](Cc2cccc3ccccc23)NC(=O)[C@H](CCCNC(=N)N)NC(=O)[C@@H](Cc2ccc3ccccc3c2)NC(=O)[C@H](Cc2c[nH]cn2)NC(=O)[C@H](CCC(=O)O)NC1=O
B3: c[Hydantoin(C(O)-(Asp-Apc))-D-2-Nal-Arg-Trp-Lys]-NH2 (peptide)
peptide: D[Apc][d2Nal]RWK-NH2
modifications: lactam 1-6; reading uncertain; also: hydantoin ring: N-terminal N of Asp1 and backbone N of residue 2 bridged by one C(O), bridge at N via C(O), other end not in the chain, printed as c[Hydantoin(C(O)-(Asp-Apc))-D-2-Nal-Arg-Trp-Lys]-NH2
B4: c[Hydantoin(C(O)-(Asp-A5c))-D-2-Nal-Arg-Trp-Lys]-NH2 (peptide)
peptide: D[Ac5c][d2Nal]RWK-NH2
modifications: lactam 1-6; also: hydantoin ring: N-terminal N of Asp1 and backbone N of residue 2 bridged by one C(O), bridge at N via C(O), other end not in the chain
B5: Ac-Nle-c(Cys-D-Ala-His-D-Phe-Arg-Trp-Cys)-Doc-Tyr-Gly-Arg-Lys-Lys-Arg-Arg-Gln-Arg-Arg-Arg-NH2 (peptide)
peptide: XCAHFRWCXYGRKKRRQRRR
modifications: N-terminal Ac; Nle at 1; D-Ala at 3; D-Phe at 5; Doc at 9; disulfide Cys2-Cys8; C-terminal NH2

Target: T1, human melanocortin receptor subtype 5 (hMC5-R) (human, UniProt P33032 1-325)
T1 construct: whole, on cells; membranes of CHO-K1 cells
T1 sequence (P33032 whole entry): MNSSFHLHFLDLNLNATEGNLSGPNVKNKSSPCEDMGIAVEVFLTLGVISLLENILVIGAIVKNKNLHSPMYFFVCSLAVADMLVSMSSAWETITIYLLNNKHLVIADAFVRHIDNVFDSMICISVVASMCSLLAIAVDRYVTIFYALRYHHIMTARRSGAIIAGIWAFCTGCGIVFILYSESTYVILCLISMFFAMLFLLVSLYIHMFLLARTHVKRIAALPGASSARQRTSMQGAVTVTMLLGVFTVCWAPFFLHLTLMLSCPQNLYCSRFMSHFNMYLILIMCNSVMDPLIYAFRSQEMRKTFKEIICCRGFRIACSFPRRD
Test: [125I]-NDP-α-MSH competition, membranes
Experimental: (§1) Cellular membranes used for the in vitro receptor binding assays were obtained from transgenic CHO-K1 cells stably expressing hMC-R receptor subtypes 1, 3, 4 or 5. […] The pellets were resuspended in the same buffer and centrifuged at 50,000 g for 10 minutes at approximately 4° C. The washed pellets containing the cellular membranes were stored at approximately −80° C.
(§2) Competitive inhibition of [¹²⁵I](Tyr²)-(Nle⁴-D-Phe⁷)α-MSH ([¹²⁵I]-NDP-α-MSH, Amersham Biosciences®) binding was carried out in polypropylene 96 well plates. Cell membranes (1-10 μg protein/well) prepared as described above were incubated in 50 mM Tris-HCl at pH 7.4 containing 0.2% bovine serum albumin (BSA), 5 mM MgCl₂, 1 mM CaCl₂ and 0.1 mg/mL bacitracin, with increasing concentrations of the test compound and 0.1-0.3 nM […] for approximately 90-120 minutes at approximately 37° C. Bound [¹²⁵I]-NDP-α-MSH ligand was separated from free [¹²⁵I]-NDP-α-MSH by filtration through GF/C glass fiber filter plates (Unifilter®; Packard) presoaked with 0.1% (w/v) polyethylenimine (PEI), using a Packard Filtermate® harvester. Filters were washed three times with 50 mM Tris-HCl at pH 7.4 at a temperature of approximately 0-4° C. and then assayed for radioactivity using a Packard Topcount® scintillation counter. Binding data were analyzed by computer-assisted non-linear regression analysis (XL fit; IDBS).

| Binder | Ki [nM] |
| --- | --- |
| Ac-CEH[d2Nal]R[1Nal]ACPPKD[βAla]RKRRRQRRR-NH2 (disulfide 1-8) | 27.5 |
| B1 | 4.38 |
| Ac-CEH[d2Nal]R[2Nal]ACPPKD[βAla]YGRRKRRQRRR-NH2 (disulfide 1-8) | 15.3 |
| B2 | 16.8 |

Target: T2, human melanocortin receptor subtype 3 (hMC3-R) (human, UniProt P41968 1-323)
T2 construct: whole, on cells; membranes of CHO-K1 cells
T2 sequence (P41968 whole entry): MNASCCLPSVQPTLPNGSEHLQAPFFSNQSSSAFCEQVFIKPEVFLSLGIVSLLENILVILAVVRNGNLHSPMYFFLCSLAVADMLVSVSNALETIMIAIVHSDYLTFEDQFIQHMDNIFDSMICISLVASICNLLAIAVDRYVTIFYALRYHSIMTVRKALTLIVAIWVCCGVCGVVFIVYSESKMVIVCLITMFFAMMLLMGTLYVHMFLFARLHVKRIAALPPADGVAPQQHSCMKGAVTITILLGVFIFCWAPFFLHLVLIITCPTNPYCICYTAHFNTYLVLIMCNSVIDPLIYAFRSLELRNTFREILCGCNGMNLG
Test: [125I]-NDP-α-MSH competition, membranes
Experimental: as §1, §2

| Binder | Ki [nM] |
| --- | --- |
| Ac-CEH[d2Nal]R[1Nal]ACPPKD[βAla]RKRRRQRRR-NH2 (disulfide 1-8) | 3.99 |
| B3 | 2760 |
| B1 | 0.59 |
| Ac-CEH[d2Nal]R[Bta]ACPPKD[βAla]YGRKRRRQRRR-NH2 (disulfide 1-8) [Ac-c(Cys-Glu-His-D-2-Nal-Arg-Bal-Ala-Cys)-Pro-Pro-Lys-Asp-β-[…]NH2] | 1.12 |
| Ac-CEH[d2Nal]R[1Nal]ACPPKD[βAla]YGRKRRRQRRR-NH2 (disulfide 1-8) | 1.61 |
| Ac-CEH[d2Nal]R[2Nal]ACPPKD[βAla]YGRRKRRQRRR-NH2 (disulfide 1-8) | 1.12 |
| B2 | 1.74 |
| B4 | 2390 |
| Ac-CEH[d2Nal]R[2Nal]ACPPKD[βAla]RRRRRRQRRR-NH2 (disulfide 1-8) | 2.26 |
| B5 | 0.699 |

Target: T3, human melanocortin receptor subtype 1 (hMC1-R) (human, UniProt Q01726 1-317)
T3 construct: whole, on cells; membranes of CHO-K1 cells
T3 sequence (Q01726 whole entry): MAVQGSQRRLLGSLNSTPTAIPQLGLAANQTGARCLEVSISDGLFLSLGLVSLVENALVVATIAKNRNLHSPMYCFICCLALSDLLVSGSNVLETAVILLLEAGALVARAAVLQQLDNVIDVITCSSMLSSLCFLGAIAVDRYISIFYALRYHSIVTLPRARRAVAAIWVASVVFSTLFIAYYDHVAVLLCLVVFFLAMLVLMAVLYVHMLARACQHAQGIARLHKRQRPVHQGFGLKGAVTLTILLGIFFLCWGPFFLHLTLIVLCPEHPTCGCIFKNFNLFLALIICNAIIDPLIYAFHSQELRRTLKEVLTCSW
Test: [125I]-NDP-α-MSH competition, membranes
Experimental: as §1, §2

| Binder | Ki [nM] |
| --- | --- |
| Ac-CEH[d2Nal]R[1Nal]ACPPKD[βAla]RKRRRQRRR-NH2 (disulfide 1-8) | 2.12 |
| B3 | 1280 |
| B1 | 1.74 |
| Ac-CEH[d2Nal]R[Bta]ACPPKD[βAla]YGRKRRRQRRR-NH2 (disulfide 1-8) [Ac-c(Cys-Glu-His-D-2-Nal-Arg-Bal-Ala-Cys)-Pro-Pro-Lys-Asp-β-[…]NH2] | 2.14 |
| Ac-CEH[d2Nal]R[1Nal]ACPPKD[βAla]YGRKRRRQRRR-NH2 (disulfide 1-8) | 1.5 |
| B2 | 1.75 |
| B4 | 9940 |
| Ac-CEH[d2Nal]R[2Nal]ACPPKD[βAla]RRRRRRQRRR-NH2 (disulfide 1-8) | 3.65 |

Target: T4, human melanocortin receptor subtype 4 (hMC4-R) (human, UniProt P32245 1-332)
T4 construct: whole, on cells; membranes of CHO-K1 cells
T4 sequence (P32245 whole entry): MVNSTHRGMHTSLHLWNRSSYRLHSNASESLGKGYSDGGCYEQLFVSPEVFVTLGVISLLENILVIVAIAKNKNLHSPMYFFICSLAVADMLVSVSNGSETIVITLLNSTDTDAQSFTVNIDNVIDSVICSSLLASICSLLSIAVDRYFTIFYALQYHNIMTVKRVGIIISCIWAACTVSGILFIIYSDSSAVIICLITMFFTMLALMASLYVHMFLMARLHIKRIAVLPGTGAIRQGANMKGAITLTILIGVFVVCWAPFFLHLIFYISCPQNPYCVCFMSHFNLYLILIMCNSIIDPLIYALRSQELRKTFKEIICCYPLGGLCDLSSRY
Test: [125I]-NDP-α-MSH competition, membranes
Experimental: as §1, §2

| Binder | Ki [nM] |
| --- | --- |
| B3 | 266 |
| B1 | 0.17 |
| Ac-CEH[d2Nal]R[Bta]ACPPKD[βAla]YGRKRRRQRRR-NH2 (disulfide 1-8) [Ac-c(Cys-Glu-His-D-2-Nal-Arg-Bal-Ala-Cys)-Pro-Pro-Lys-Asp-β-[…]NH2] | 0.624 |
| Ac-CEH[d2Nal]R[1Nal]ACPPKD[βAla]YGRKRRRQRRR-NH2 (disulfide 1-8) | 0.301 |
| Ac-CEH[d2Nal]R[2Nal]ACPPKD[βAla]YGRRKRRQRRR-NH2 (disulfide 1-8) | 0.223 |
| B2 | 0.15 |
| B4 | 44.6 |
| Ac-CEH[d2Nal]R[2Nal]ACPPKD[βAla]RRRRRRQRRR-NH2 (disulfide 1-8) | 0.261 |
| B5 | 0.596 |

— patent US20120135923A1 (IPSEN PHARMA S A S, published 2012)
